From patent US20180057596A1 (AstraZeneca / MedImmune, published 2018)

T1: human IL-4Rα on TF-1 cells (human, UniProt P24394 26-825)
T1 sequence (looked up): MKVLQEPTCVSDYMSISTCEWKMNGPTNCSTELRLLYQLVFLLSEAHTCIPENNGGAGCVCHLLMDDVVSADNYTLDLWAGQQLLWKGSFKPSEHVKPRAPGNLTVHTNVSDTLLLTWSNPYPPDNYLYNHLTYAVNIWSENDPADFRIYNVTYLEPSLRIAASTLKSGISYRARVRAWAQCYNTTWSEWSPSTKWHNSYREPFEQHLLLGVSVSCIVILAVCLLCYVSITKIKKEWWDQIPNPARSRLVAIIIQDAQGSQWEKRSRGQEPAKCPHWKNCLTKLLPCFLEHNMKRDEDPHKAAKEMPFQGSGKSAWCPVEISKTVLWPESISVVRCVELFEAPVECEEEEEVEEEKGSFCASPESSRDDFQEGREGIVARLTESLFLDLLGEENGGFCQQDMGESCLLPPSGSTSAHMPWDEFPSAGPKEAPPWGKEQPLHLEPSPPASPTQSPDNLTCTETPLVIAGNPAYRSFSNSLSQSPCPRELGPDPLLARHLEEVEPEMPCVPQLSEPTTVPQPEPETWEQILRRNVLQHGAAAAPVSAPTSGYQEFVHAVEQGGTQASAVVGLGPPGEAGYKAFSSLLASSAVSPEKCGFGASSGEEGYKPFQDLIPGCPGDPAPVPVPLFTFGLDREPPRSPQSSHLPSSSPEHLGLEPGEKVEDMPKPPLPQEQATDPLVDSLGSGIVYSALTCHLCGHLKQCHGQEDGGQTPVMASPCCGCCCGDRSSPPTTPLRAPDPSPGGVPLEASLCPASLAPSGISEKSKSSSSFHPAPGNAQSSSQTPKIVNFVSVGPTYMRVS

T2: human IL-4Rα HIS FLAG (in house HEK-EBNA derived) (human, biotinylated where used as the labelled partner in the DELFIA assay)
T2 construct: also called HuIL-4Rα; Human IL4-Rα/FLAG/HIS tag
T2 chain: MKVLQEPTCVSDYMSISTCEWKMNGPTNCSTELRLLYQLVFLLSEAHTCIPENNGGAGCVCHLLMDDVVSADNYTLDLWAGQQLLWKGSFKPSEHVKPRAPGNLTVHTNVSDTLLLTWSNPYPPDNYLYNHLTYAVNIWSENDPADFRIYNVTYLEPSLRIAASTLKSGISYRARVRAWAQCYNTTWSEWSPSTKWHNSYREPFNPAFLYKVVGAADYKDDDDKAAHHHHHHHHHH

T3: cynomolgus IL-4Rα HIS FLAG (cynomolgus)
T3 construct: also called Cyno IL4Rα HIS FLAG; not shown: HIS and FLAG tags and any vector-encoded linker of the cynomolgus HIS FLAG construct
T3 chain: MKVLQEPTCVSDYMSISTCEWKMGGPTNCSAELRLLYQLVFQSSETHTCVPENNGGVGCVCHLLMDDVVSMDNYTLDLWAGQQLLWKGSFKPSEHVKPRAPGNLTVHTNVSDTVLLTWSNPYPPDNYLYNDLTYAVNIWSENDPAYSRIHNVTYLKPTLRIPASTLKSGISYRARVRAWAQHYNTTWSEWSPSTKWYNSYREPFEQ


How the values were obtained:
[1] = target: T1, human IL-4Rα on TF-1 cells; test: cell-based or functional assay
[2] = target: T2, human IL-4Rα HIS FLAG (in house …); test: SPR (BIAcore 2000), IgG captured on Protein G', receptor as analyte, 1:1 Langmuir
Description: (§1) In brief, Protein G′ (Sigma Aldrich, P4689) was covalently coupled to the surface of a CM5 sensor chip using standard amine coupling reagents according to manufacturer's instructions (BIAcore). This Protein G′ surface was used to capture a constant amount of purified anti-IL4R• antibodies or isotype control via the Fc domain. Human or cynomolgus IL-4R• HIS FLAG prepared in HBS-EP buffer (BIAcore AB), at a range of concentrations, between 100 nM and 0.2 nM, were passed over the sensor chip surface. […] The resulting sensorgrams were evaluated using BIA evaluation 4.1 software and fitted to 1:1 Langmuir binding model, to provide the relative binding data. The experiments were performed over the course of at least three separate days to calculate an average monovalent affinity.

[3] = target: T3, cynomolgus IL-4Rα HIS FLAG; test: as above
Description: as §1

Binder	IC50 (pM), IL-4 induced TF-1 cell proliferation [1] [pM]	IC50 (pM), IL-13 induced TF-1 cell proliferation [1] [pM]	Kd [2] [nM]	koff [2] [s⁻¹]	kon [2] [M⁻¹ s⁻¹]	Kd [3] [nM]	koff [3] [s⁻¹]	kon [3] [M⁻¹ s⁻¹]
Antibody 20 IgG (antibody, V domains shown) VH: QVQLVQSGAEVKKPGASVKVSCKASGYAFTSYYMHWARQAPGQGLEWMGIINPSGGSTSYAQKFQGRVTMTRDTSTSTVYMELSSLRSEDTAVYYCARGKYWMYDWGKGTLVTVSS VL: QSVLTQPPSVSAAPGQKVTISCSGGSSNIGNSYVSWYQQLPGTAPKLLIYDNNKRPSGIPDRFSGSKSGTSATLAITGLQTGDEADYYCGTWDTSTVWEWPFGTGTKLTVL	31.1	66.1	1.25	0.000873	698000	27.7	0.00452	163000
Antibody 4 IgG (antibody, V domains shown) VH: QVQLVQSGAEVKKPGASVKVSCKASGYAFTSYYMHWARQAPGQGLEWMGIINPSGGSTSYAQKFQGRVTMTRDTSTSTVYMELSSLRSEDTAVYYCARGKWWLYNWGKGTLVTVSS VL: QSVLTQPPSVSAAPGQKVTISCSGGSSNIGNSYVSWYQQLPGTAPKLLIYDNNKRPSGIPDRFSGSKSGTSATLAITGLQTGDEADYYCGTWDTSSPPQPIFGTGTKLTVL	20.9	58.1	–	–	–	–	–	–
Antibody 31 IgG (antibody, V domains shown) VH: QVQLVQSGAEVKKPGASVKVSCKASGYAFTSYYMHWARQAPGQGLEWMGIINPSGGSTSYAQKFQGRVTMTRDTSTSTVYMELSSLRSEDTAVYYCARGKYWMYDWGKGTLVTVSS VL: QSVLTQPPSVSAAPGQKVTISCSGGSSSIGNSYVSWYQQLPGTAPKLLIYDNNKRPSGIPDRFSGSKSGTSATLAITGLQTGDEADYYCGTWATSPVWEWPFGTGTKLTVL	20.2	44.2	–	–	–	–	–	–
Antibody 24 IgG (antibody, V domains shown) VH: QVQLVQSGAEVKKPGASVKVSCKASGYAFTSYYMHWARQAPGQGLEWMGIINPRGGSTSYAQKFQGRVTMTRDTSTSTVYMELSSLRSEDTAVYYCARGKYWMYDWGKGTLVTVSS VL: QSVLTQPPSVSAAPGQKVTISCSGGSSNIGNSYVSWYQQLPGTAPKLLIYDNNKRPSGIPDRFSGSKSGTSATLAITGLQTGDEADYFCGTWDTSTVWEWPFGTGTKLTVL	12.6	30.2	–	–	–	–	–	–
Antibody 25 IgG (antibody, V domains shown) VH: QVQLVQSGAEVKKPGASVKVSCKASGYAFTSYYMHWARQAPGQGLEWMGIINPRGGSASYAQKFQGRVSMTRDTSTSTVYMELSSLRSEDTAVYYCARGKYWMYDWGKGTLVTVSS VL: QSVLTQPPSVSAAPGQKVTISCSGGSSNIGNSYVSWYQQLPGTAPKLLIYDNNKRPSGIPDRFSGSKSGTTATLAITGLQTGDEADYYCGTWVTSTVWEWPFGTGTKLTVL	9.8	23.2	–	–	–	–	–	–
Antibody 13 IgG (antibody, V domains shown) VH: QVQLVQSGAEVKKPGASVKVSCKASGYAFTSYYMHWARQAPGQGLEWMGIINPSGGSTSYAQKFQGRVTMTRDTSTSTVYMELSSLRSEDTAVYYCARGKWWLYDWGKGTLVTVSS VL: QSVLTQPPSVSAAPGQKVTISCSGGSSNIGNSYVSWYQQLPGTAPKLLIYDNNKRPSGIPDRFSGSKSGTSATLAITGLQTGDEADYYCGTWDTSTTLQPLFGTGTKLTVL	15.7	24.6	–	–	–	–	–	–
Antibody 21 IgG (antibody, V domains shown) VH: QVQLVQSGAEVKKPGASVKVSCKASGYAFTSYYMHWARQAPGQGLEWMGIINPSGGSASYAQKFQGRVTMTRDTSTSTVYMELSSLRSEDTAVYYCARGKYWMYDWGKGTLVTVSS VL: QSVLTQPPSVSAAPGQKVTISCSGGSSNIGNSYVSWYQQLPGTAPKLLIYDNNKRPSGIPDRFSGSKSGTSATLAITGLQTGDEAVYFCGTWDTSTVWEWPFGTGTKLTVL	19.7	34.7	–	–	–	–	–	–
Antibody 19 IgG (antibody, V domains shown) VH: QVQLVQSGAEVKKPGASVKVSCKASGYAFTSYYMHWARQAPGQGLEWMGIINPSGGSTSYAQKFQGRVTMTRDTSTSTVYMELSSLRSEDTAVYYCARGKWWWQHWGKGTLVTVSS VL: QSVLTQPPSVSAAPGQKVTISCSGGSSNIGNSYVSWYQQLPGTAPKLLIYDNNKRPSGIPDRFSGSKSGTSATLAITGLQTGDEADYYCGTWDTSTTYHPIFGTGTKLTVL	7.6	22.4	–	–	–	–	–	–
Antibody 7 IgG (antibody, V domains shown) VH: QVQLVQSGAEVKKPGASVKVSCKASGYAFTSYYMHWARQAPGQGLEWMGIINPSGGSTSYAQKFQGRVTMTRDTSTSTVYMELSSLRSEDTAVYYCARGKWWWQYWGKGTLVTVSS VL: QSVLTQPPSVSAAPGQKVTISCSGGSSNIGNSYVSWYQQLPGTAPKLLIYDNNKRPSGIPDRFSGSKSGTSATLAITGLQTGDEADYYCGTWDTSSPPQPIFGTGTKLTVL	12.3	42.7	–	–	–	–	–	–
Antibody 42 IgG (antibody, V domains shown) VH: QVQLVQSGAEVKKPGASVKVSCKASGYAFTSYYMHWARQAPGQGLEWVGIINPSGGSTSYAQKFQGRVTMTRDTSTSTVYMELSSLRSGDTAVYYCARGKYWMYDWGKGTLVTVSS VL: QAVLTQPPSVSAAPGQKVTISCSGGSSNIGNSYVSWYQRLPGAAPKLLIYDNNKRPSGIPDRFSGSKSGTSATLAITGLQTGDEADYYCGTWDTSTGWEWPFGTGTKLTVL	20.2	42.7	–	–	–	–	–	–
Antibody 9 IgG (antibody, V domains shown) VH: QVQLVQSGAEVKKPGASVKVSCKASGYAFTSYYMHWARQAPGQGLEWMGIINPSGGSTSYAQKFQGRVTMTRDTSTSTVYMELSSLRSEDTAVYYCARGKWWLYNWGKGTLVTVSS VL: QSVLTQPPSVSAAPGQKVTISCSGGSSNIGNSYVSWYQQLPGTAPKLLIYDNNKRPSGIPDRFSGSKSGTSATLAITGLQTGDEADYYCGTWDTSTTMYPLFGTGTKLTVL	8.88	20.4	0.422	0.000229	543000	124	0.0163	131000
Antibody 2 IgG (antibody, V domains shown) VH: QVQLVQSGAEVKKPGASVKVSCKASGYAFTSYYMHWARQAPGQGLEWMGIINPSGGSTSYAQKFQGRVTMTRDTSTSTVYMELSSLRSEDTAVYYCARGKWWLYNWGKGTLVTVSS VL: QSVLTQPPSVSAAPGQKVTISCSGGSSNIGNSYVSWYQQLPGTAPKLLIYDNNKRPSGIPDRFSGSKSGTSATLAITGLQTGDEADYYCGTWDTSQPPNPLFGTGTKLTVL	41.7	171	4.51	0.00294	651000	47.5	0.00459	96700
